Measured values from paper PMC8835725, “Cryo‐EM structure of the full‐length Lon protease from Thermus thermophilus” (Febs Letters, 2021).
“And” between values parts separate entries of the source, which are not always exact repeats. Identical values can stand only once.

How the values were obtained:
[1] = molecular target: the molecule itself; test: SEC + other: negative staining electron microscopy; Superose 6 Increase 10/300 GL in buffer A (50 mM Tris/HCl, 200 mM NaCl, pH 8.0); oligomer size by column calibration, verified by negative staining EM
[2] = molecular target: the molecule itself; test: electron microscopy on grids; purified EcLon on EM grids

B1: Lon protease from Thermus thermophilus (enzyme, UniProt Q72KS4 1-795, looked up)
chain: MKDFLRLELPVLPLRNTVVLPHTTTGVDVGRLKSKRAVEEALSADRLLFLVTQKDPEVDDPAPEDLYAVGTLAVVKQAMRLPDGTLQVMVEARSRARLLSYVAAPYLRAVGEAIPEPPLKDPELARVLVNEVQEAFERYLQNHKTLRLDRYQQEAVKSTRDPAILADLVAHHATWTLEEKQTILETPEVEERLKRVLALLLRDLERFELDKKIAARVKEQMDQNQREYYLREQMKAIQKELGGGEDFLTEIEELRERIEKKGMPEPVKEKALKELKRLERMQPGSPEATVSRTYLDWLLEVPWTEADPEVLDISVTKRVLDEDHYGLKEVKERILEYLAVRQLTQGKEVKGHAPILCFVGPPGVGKTSLGKSIARSMNRRFHRISLGGVRDEAEIRGHRRTYIGALPGKIIQGMKQVGVVNPVFLLDEIDKLSSDWRGDPAAALLEVLDPEQNHTFTDHYLDVPYDLSKVFFITTANTLSTIPRPLLDRMEVIEIPGYTLHEKRAIARYFRWPFQVKEAGLEGRLEITDRAIERIVQEYTREAGVRNLDRELSKVARKAAKDYLEKPWEGVRVVDAEDLEAYLGVPKYRPDRAEKEPQVGAAQGLAWTPYGGTLLTIEAVAVPGTGKVNLTGNLGEVMKESAHAALTYLRAHREEWGLPEGFHKDYDLHIHVPEGATPKDGPSAGITIATALASALTGRPVRMDIAMTGEITLRGRVLPIGGVKEKLLAAHQAGIHRVILPKENAAELKEVPEEILKDLEIHFVEEVGEVLKLLLLPPPPPPAVQPDRPQPGVGA
notes: Lon protease, Thermus thermophilus, UniProt Q72KS4, full length, untagged and unmodified after SUMO cleavage; Homo-hexamer; cryo-EM sample in buffer A with 1 mM AMP-PNP and 5 mM MgCl2; also called TtLon; Lon from T. thermophilus; source: E. coli C41(DE3), purified (Ni-NTA, SUMO tag cleaved with SENP protease, Superose 6 Increase SEC); not shown: His6, N-terminal, cleaved; SUMO, N-terminal, cleaved
With B1 the “stoichiometry N” value [1] was 6.

B2: Lon protease from Escherichia coli, full length (enzyme, UniProt P0A9M0 1-784, looked up)
chain: MNPERSERIEIPVLPLRDVVVYPHMVIPLFVGREKSIRCLEAAMDHDKKIMLVAQKEASTDEPGVNDLFTVGTVASILQMLKLPDGTVKVLVEGLQRARISALSDNGEHFSAKAEYLESPTIDEREQEVLVRTAISQFEGYIKLNKKIPPEVLTSLNSIDDPARLADTIAAHMPLKLADKQSVLEMSDVNERLEYLMAMMESEIDLLQVEKRIRNRVKKQMEKSQREYYLNEQMKAIQKELGEMDDAPDENEALKRKIDAAKMPKEAKEKAEAELQKLKMMSPMSAEATVVRGYIDWMVQVPWNARSKVKKDLRQAQEILDTDHYGLERVKDRILEYLAVQSRVNKIKGPILCLVGPPGVGKTSLGQSIAKATGRKYVRMALGGVRDEAEIRGHRRTYIGSMPGKLIQKMAKVGVKNPLFLLDEIDKMSSDMRGDPASALLEVLDPEQNVAFSDHYLEVDYDLSDVMFVATSNSMNIPAPLLDRMEVIRLSGYTEDEKLNIAKRHLLPKQIERNALKKGELTVDDSAIIGIIRYYTREAGVRGLEREISKLCRKAVKQLLLDKSLKHIEINGDNLHDYLGVQRFDYGRADNENRVGQVTGLAWTEVGGDLLTIETACVPGKGKLTYTGSLGEVMQESIQAALTVVRARAEKLGINPDFYEKRDIHVHVPEGATPKDGPSAGIAMCTALVSCLTGNPVRADVAMTGEITLRGQVLPIGGLKEKLLAAHRGGIKTVLIPFENKRDLEEIPDNVIADLDIHPVKRIEEVLTLALQNEPSGMQVVTAK
notes: Lon protease, Escherichia coli, UniProt P0A9M0, full length, untagged after SUMO cleavage; Seen as a mixture of hexamers and dodecamers on EM grids; also called EcLon; EcLon^FL; source: E. coli C41(DE3), purified (Ni-NTA, SUMO tag cleaved with SENP protease, Superose 6 Increase SEC); not shown: His6, N-terminal, cleaved; SUMO, N-terminal, cleaved
For B2, the “stoichiometry N” value [2] was 6 and 12.

B3: N-terminally truncated mutant EcLon^253-784 (domain or fragment, Escherichia coli, UniProt P0A9M0 253-784, looked up)
chain: ALKRKIDAAKMPKEAKEKAEAELQKLKMMSPMSAEATVVRGYIDWMVQVPWNARSKVKKDLRQAQEILDTDHYGLERVKDRILEYLAVQSRVNKIKGPILCLVGPPGVGKTSLGQSIAKATGRKYVRMALGGVRDEAEIRGHRRTYIGSMPGKLIQKMAKVGVKNPLFLLDEIDKMSSDMRGDPASALLEVLDPEQNVAFSDHYLEVDYDLSDVMFVATSNSMNIPAPLLDRMEVIRLSGYTEDEKLNIAKRHLLPKQIERNALKKGELTVDDSAIIGIIRYYTREAGVRGLEREISKLCRKAVKQLLLDKSLKHIEINGDNLHDYLGVQRFDYGRADNENRVGQVTGLAWTEVGGDLLTIETACVPGKGKLTYTGSLGEVMQESIQAALTVVRARAEKLGINPDFYEKRDIHVHVPEGATPKDGPSAGIAMCTALVSCLTGNPVRADVAMTGEITLRGQVLPIGGLKEKLLAAHRGGIKTVLIPFENKRDLEEIPDNVIADLDIHPVKRIEEVLTLALQNEPSGMQVVTAK
notes: Lon protease, Escherichia coli, UniProt P0A9M0, residues 253-784 (lacks the NTD and the collar); Tags and their cleavage follow from 'produced as described for full-length EcLon'; also called EcLon truncation including residues 253 to 784; source: E. coli C41(DE3), purified, produced as described for full-length EcLon; not shown: His6, N-terminal, cleaved; SUMO, N-terminal, cleaved
With B3 the “stoichiometry N” value [1] was 6.
